Measurements as given in PMC3807654 (Cell Reports, 2012).

Target: human α-synuclein, monomeric, full length (human, UniProt P37840 1-140)
Assay: fluorescence polarisation

Kd: 8.04 ± 2.09 µM
B1: Atto550-labeled SERF1a (Cys-SERF1a-Cys, N- and C-terminal double cysteine mutant) (natural protein)
chain: MC(Atto550 maleimide)ARGNQRELARQKNMKKTQEISKGKRKEDSLTASQRKQRDSEIMQEKQKAANEKKSMQTREKC(Atto550 maleimide)
